Assay results reported in paper PMC3448684, “IP-FCM Measures Physiologic Protein-Protein Interactions Modulated by Signal Transduction and Small-Molecule Drug Inhibition” (PLoS ONE, 2012).

Columns and labels:
IL-2 = target: T1, IL-2 (Homo sapiens, UniProt P60568, C145S); assay: IP-FCM bead assay of the IL-2:CD25 interaction with recombinant proteins (also with endogenous CD25 captured from PBMC lysate); assay type: biochemical
T1 construct: gene IL2; recombinant human IL-2 (Proleukin); with CD25 (IL-2 receptor α-chain; recombinant human CD25-Fc chimera, or endogenous CD25 from PBMC lysate)
T1 sequence (P60568 22-153 C145S): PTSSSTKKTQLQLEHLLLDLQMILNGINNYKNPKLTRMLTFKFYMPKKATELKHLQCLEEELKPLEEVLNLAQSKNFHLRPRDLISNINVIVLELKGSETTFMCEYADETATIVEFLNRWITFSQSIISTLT
T1 sequence (P01589 22-272 partner): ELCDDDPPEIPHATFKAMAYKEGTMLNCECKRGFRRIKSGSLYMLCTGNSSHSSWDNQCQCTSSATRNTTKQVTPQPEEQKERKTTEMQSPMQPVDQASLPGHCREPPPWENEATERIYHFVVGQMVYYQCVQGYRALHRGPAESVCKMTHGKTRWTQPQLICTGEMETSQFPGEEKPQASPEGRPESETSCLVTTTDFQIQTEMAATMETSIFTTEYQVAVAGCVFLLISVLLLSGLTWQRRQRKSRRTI

[1] = target: recombinant human CD25-Fc chimera (human) (UniProt P01589); assay: IP-FCM (capture on antibody beads, detection by flow cytometry); data not shown: as a4 with recombinant CD25, but 500 U/ml or 10,000 U/ml IL-2
Sequence of recombinant human CD25-Fc chimera (human) (P01589 22-240, change not shown): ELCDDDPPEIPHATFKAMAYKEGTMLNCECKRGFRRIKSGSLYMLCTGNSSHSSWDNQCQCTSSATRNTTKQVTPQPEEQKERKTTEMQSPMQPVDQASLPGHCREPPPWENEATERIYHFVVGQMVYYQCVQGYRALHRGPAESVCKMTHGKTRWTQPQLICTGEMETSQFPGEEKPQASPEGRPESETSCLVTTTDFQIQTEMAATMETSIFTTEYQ

[2] = target: recombinant human CD25-Fc chimera (human) (UniProt P01589); assay: IP-FCM (capture on antibody beads, detection by flow cytometry); CD25-Fc captured on anti-CD25 CML beads overnight, washed; IL-2 (1,000 U/ml) added for 1 h with or without Ro-26-4550 or control compounds; washed, probed with anti-IL-2

Sequence of recombinant human IL-2 (Proleukin) (P60568 21-153): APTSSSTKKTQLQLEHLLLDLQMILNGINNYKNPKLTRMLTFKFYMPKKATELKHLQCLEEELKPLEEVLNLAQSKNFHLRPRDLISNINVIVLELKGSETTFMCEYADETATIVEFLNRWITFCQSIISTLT

Row | Substance | % reduction of IL-2:CD25 binding at 10 μM (Methods; printed as 10 mM in Results) (IL-2) | percent reduction of binding with Ro-26-4550, 10,000 U/ml IL-2 [1] [%] | percent reduction of binding with Ro-26-4550 (10 mM [sic]), 1,000 U/ml IL-2 [2] [%]
1 | Ro-26-4550 [R26] | 62 % reduction of IL-2:CD25 binding at 10 µM (Methods; printed as 10 mM in Results) | – | –
2 | recombinant human IL-2 (Proleukin) (from UniProt P60568 21-153) (ligand) | – | 44 | 62
